Consider 39 variants from the RNAGym collection of RNA variant scans (doi:10.7554/elife.80360).

To fix the notation:
B1: CPEB3 Ribozyme (parent)
chain: GGGGGCCACAGCAGAAGCGUUCACGUCGCGGCCCCUGUCAGAUUCUGGUGAAUCUGCGAAUUCUGCUGU

Variants of B1 are the subject of the data set. Put plainly: self-cleavage, relative activity (ratio to wild type); higher = more cleavage; co-transcriptional.
For the variant GGGGGCUACAGCAGAAGCGUUCACGUCGCGGCCCCUGUCAGAUUCUGGUGAAUCUGCGAAUUAUGCUGU, the self-cleavage was 0.577. As to GGGGGCUACAGCAGAAGCGUUCACGUCGCGGCCCCUGUCAGAUUCUGGUGAAUCUGCGAAUUUUGCUGU, the self-cleavage is 0.948.

Take GGGGGCUACAGCAGAAGCGUUCACGUCGCGGCCCCUGUCAGAUUCUGGUGAAUAUGCGAAUUCUGCUGU: the self-cleavage is 0.831. For GGGGGCUACAGCAGAAGCGUUCACGUCGCGGCCCCUGUCAGAUUCUGGUGAAUUUGCGAAUUCUGCUGU, the self-cleavage turned out to be 0.967. For GGGGGCUACAGCAGAAGCGUUCACGUCGCGGCCCCUGUCAGAUUCUGGUGAAUCUGCGGAUUCUGCUGU the value was 0.93; for GGGGGCUACAGCAGAAGCGUUCACGUCGCGGCCCCUGUCAGAUUCUGGUGAAUCUGCGUAUUCUGCUGU, 0.554; for GGGGGCUACAGCAGAAGCGUUCACGUCGCGGCCCCUGUCAGAUUCUGGUGAAUCUGCGCAUUCUGCUGU, 0.403. As to GGGGGCUACAGCAAAAGCGUUCACGUCGCGGCCCCUGUCAGAUUCUGGUGAAUCUGCGAAUUCUGCUGU, the self-cleavage turned out to be 0.509.

Regarding GGGGGCUACAUCAGAAGCGUUCACGUCGCGGCCCCUGUCAGAUUCUGGUGAAUCUGCGAAUUCUGCUGU, the self-cleavage is 0.715.

In the case of GGGGGCUACAGCAGAAGCGUUCACGUCGCGGCCACUGUCAGAUUCUGGUGAAUCUGCGAAUUCUGCUGU, the self-cleavage came to 0.521.

With GGGGGCUACAGCAGAAGAGUUCACGUCGCGGCCCCUGUCAGAUUCUGGUGAAUCUGCGAAUUCUGCUGU, the self-cleavage was found to be 0.165. On to GGGGGCUACAGCAGAAGUGUUCACGUCGCGGCCCCUGUCAGAUUCUGGUGAAUCUGCGAAUUCUGCUGU, for which the self-cleavage came to 0.702. On to GGGGGCUACAGCAGAAGCGUUCACGUCGCGGGCCCUGUCAGAUUCUGGUGAAUCUGCGAAUUCUGCUGU, for which the self-cleavage worked out at 0.148.

Consider GGGGGCUACAGCAGAAGCGUUCACGUCGCGGACCCUGUCAGAUUCUGGUGAAUCUGCGAAUUCUGCUGU, for which the self-cleavage turned out to be 0.436. In the case of GGGGGCUACAGCAGAAGCGUUCACGUUGCGGCCCCUGUCAGAUUCUGGUGAAUCUGCGAAUUCUGCUGU, the self-cleavage is 0.247. As to GGGGGCUACAGCAGAAGCGUUCACGUGGCGGCCCCUGUCAGAUUCUGGUGAAUCUGCGAAUUCUGCUGU, the self-cleavage stood at 0.159. Take GGGGGCUACAGCAGAAGCGUUCACGUAGCGGCCCCUGUCAGAUUCUGGUGAAUCUGCGAAUUCUGCUGU: the self-cleavage turned out to be 0.289. For GGGGGCUACAGCAGAAGCGUUCACGUCGCGGCUCCUGUCAGAUUCUGGUGAAUCUGCGAAUUCUGCUGU, the self-cleavage came out at 0.939. For GGGGGCUACAGCAGAAGCGUUCACGUCGCGGCACCUGUCAGAUUCUGGUGAAUCUGCGAAUUCUGCUGU the value was 0.656; for GGGGGCUACAGCAGAAGCGUUCACGUCGCGGCGCCUGUCAGAUUCUGGUGAAUCUGCGAAUUCUGCUGU, 0.245. GGGGGCUACAGCAGAAGCGUUCACGUCGCGGCCCCUGUCAGAUUCUGGUGAAUCUGCGAAUUCUGGUGU: the self-cleavage turned out to be 0.898. For GGGGGCUACAGCAGAAGCGUUGACGUCGCGGCCCCUGUCAGAUUCUGGUGAAUCUGCGAAUUCUGCUGU the value was 0.117; for GGGGGCUACAGCAGAAGCGUUAACGUCGCGGCCCCUGUCAGAUUCUGGUGAAUCUGCGAAUUCUGCUGU, 0.103. Turning to GGGGGCUACAGCAGAAGCGUUCACGUCGCGGCCCUUGUCAGAUUCUGGUGAAUCUGCGAAUUCUGCUGU, the self-cleavage came out at 0.947. Turning to GGGGGCUACAGCAGAAGCGUUCAAGUCGCGGCCCCUGUCAGAUUCUGGUGAAUCUGCGAAUUCUGCUGU, the self-cleavage turned out to be 0.499. For GGGGGCUACAGCAGAAGCGUUCACGUCGCGGCCCCUGUCAGAUUCUGGUGAAUCUGCGAUUUCUGCUGU, the self-cleavage stood at 0.244. Consider GGGGGCUACAGCAGAAGCGUUCACGUCGCGGCCCCUGUCAGAUUCUGGUGAAUCUGCGAGUUCUGCUGU, for which the self-cleavage came out at 0.789. Take GGGGGCUACAGCAGAAGCGUUCACGUCGCGGCCCCUGUCAGAUUCUGGUGAAUCUGUGAAUUCUGCUGU: the self-cleavage came to 0.305. Turning to GGGGGCUACAGCAGAAGCGUUCACGUCGCGGCCCCUGUCAGAUUCUGGUGAAUCUGAGAAUUCUGCUGU, the self-cleavage worked out at 0.35. GGGGGCUAGAGCAGAAGCGUUCACGUCGCGGCCCCUGUCAGAUUCUGGUGAAUCUGCGAAUUCUGCUGU: the self-cleavage was found to be 1.01. As for GGGGGCUAUAGCAGAAGCGUUCACGUCGCGGCCCCUGUCAGAUUCUGGUGAAUCUGCGAAUUCUGCUGU, the self-cleavage worked out at 1.06. As for GGGGGCUAAAGCAGAAGCGUUCACGUCGCGGCCCCUGUCAGAUUCUGGUGAAUCUGCGAAUUCUGCUGU, the self-cleavage worked out at 1.05.

With GGGGGCUACAGAAGAAGCGUUCACGUCGCGGCCCCUGUCAGAUUCUGGUGAAUCUGCGAAUUCUGCUGU, the self-cleavage came to 0.555. For GGGGGCUACAGCAGAAGCGUUCACGUCGCGGCCCCUGUGAGAUUCUGGUGAAUCUGCGAAUUCUGCUGU the value was 0.911; for GGGGGCUACAGCAGAAGCGUUCACGUCGCGGCCCCUGUAAGAUUCUGGUGAAUCUGCGAAUUCUGCUGU, 0.686. Regarding GGGGGCUACAGCAGAAGCGUUCACGUCGCGGCCCCUGUUAGAUUCUGGUGAAUCUGCGAAUUCUGCUGU, the self-cleavage came out at 0.803. As to GGGGGCUACAGCAGAAGCGUUCACGUCGCGGCCCCUGUCAGAUUUUGGUGAAUCUGCGAAUUCUGCUGU, the self-cleavage turned out to be 0.892. The figure for GGGGGCUACAGCAGAAGCGUUCACGUCGCGGCCCCUGUCAGAUUAUGGUGAAUCUGCGAAUUCUGCUGU is 0.919. Regarding GGGGGCUACAGCAGAAGCGUUCACGUCGCGGCCCCUGUCAGAUUGUGGUGAAUCUGCGAAUUCUGCUGU, the self-cleavage stood at 1.02.
